Laboratory results published in article PMC8249414.

Molecular target: nucleosome core particle with 167 bp '601' DNA (167NCP)

ALC1 (1-673) D381A mutant (from UniProt Q86WJ1 1-673) (domain or fragment)
Km of nucleosome remodeling (enzyme 10-640 nM), against ALC1 (1-673): 2 fold
